The text below walks through data of patent publication US20140220596A1 (MEDICINAL BIOCONVERGENCE RESEARCH CENTER, published 2014).

B3: Fc-fused soluble cadherin-6 (extracellular domain of CDH6 fused to the Fc fragment of human IgG1) (Fc fusion)
chain: SWMWNQFFLLEEYTGSDYQYVGKLHSDQDRGDGSLKYILSGDGAGDLFIINENTGDIQATKRLDREEKPVYILRAQAINRRTGRPVEPESEFIIKIHDINDNEPIFTKEVYTATVPEMSDVGTFVVQVTATDADDPTYGNSAKVVYSILQGQPYFSVESETGIIKTALLNMDRENREQYQVVIQAKDMGGQMGGLSGTTTVNITLTDVNDNPPRFPQSTYQFKTPESSPPGTPIGRIKASDADVGENAEIEYSITDGEGLDMFDVITDQETQEGIITVKKLLDFEKKKVYTLKVEASNPYVEPRFLYLGPFKDSATVRIVVEDVDEPPVFSKLAYILQIREDAQINTTIGSVTAQDPDAARNPVKYSVDRHTDMDRIFNIDSGNGSIFTSKLLDRETLLWHNITVIATEINNPKQSSRVPLYIKVLDVNDNAPEFAEFYETFVCEKAKADQLIQTLHAVDKDDPYSGHQFSFSLAPEAASGSNFTIQDNKDNTAGILTRKNGYNRHEMSTYLLPVVISDNDYPVQSSTGTVTVRVCACDHHGNMQSCHAEALIHPTGLSTGA
notes: also called Fc-CDH6; Fc-fused CDH6; not shown: Fc fragment of human IgG1

Test [1] deals with Fc-fused soluble cadherin-18 (extracellular domain of CDH18 fused to the Fc fragment of human IgG1) (human) (UniProt Q13634). The experiment in a line: SPR (ProteOn XPR36), Fc-cadherin amine-coupled to GLC chip, GRS as analyte, Langmuir 1:1 model.
Test [2] has as its target B3. Kind of test: GST pull-down with GSH-sepharose, immunoblot for CDH6. How it is done: (A) A panel of Fc-fused soluble cadherin family proteins was bound to His-tagged GRS or to BSA-coated plates, and complexes were detected with the IgG1 Fc-HRP (Thermo) reagent. (B) To confirm the binding between cadherins and GRS, Fc-CDH2, 6 and 18 were incubated with His-GRS. Fc-CDHs were precipitated with protein A/G agarose and co-precipitated GRS was determined by immunoblotting. (C) To calculate the equilibrium dissociation constant (IQ), immobilized Fc-fused (to gold chips) cadherins were incubated with GRS (31.25 nM˜1 uM). Binding of GRS to CDH6 was determined by surface plasmon resonance and expressed as resonance units (RU). (D) To confirm the binding between CDH6 and GRS domain peptides, Fc-CDH6 was incubated with different domains (F1, 2, 3 and 4) of GRS that were expressed as the GST fusion proteins. GST-GRS proteins were precipitated with GSH-sepharose beads and co-precipitated CDH6 was determined by immunoblotting. (E) Five difference cancers cells were determined for the expression of CDH6 by immunoblotting. (F) HCT116 cells were transfected with non-specific siRNA controls (si-con) or two differently designed siRNAs targeting CDH6 (#1 and #2), treated with biotinylated GRS (15 nM), and the binding of GRS was analyzed by immunoblotting. (G) HCT116 cells were transfected with si-con and si-CDH6 as described above, and cell binding of GRS was measured by FACS analysis. […]
In general terms: Immunoblotting shows a protein as a band on a membrane.

Test [3] deals with T1, His-tagged recombinant human glycyl-tRNA synthetase (GRS), 685 amino acids (human, UniProt P41250 55-739).
T1 construct: Expressed in E. coli; also called His-GRS; his-tagged GRS; not shown: His tag from vector pET-28a (EcoRI/XhoI)
T1 sequence: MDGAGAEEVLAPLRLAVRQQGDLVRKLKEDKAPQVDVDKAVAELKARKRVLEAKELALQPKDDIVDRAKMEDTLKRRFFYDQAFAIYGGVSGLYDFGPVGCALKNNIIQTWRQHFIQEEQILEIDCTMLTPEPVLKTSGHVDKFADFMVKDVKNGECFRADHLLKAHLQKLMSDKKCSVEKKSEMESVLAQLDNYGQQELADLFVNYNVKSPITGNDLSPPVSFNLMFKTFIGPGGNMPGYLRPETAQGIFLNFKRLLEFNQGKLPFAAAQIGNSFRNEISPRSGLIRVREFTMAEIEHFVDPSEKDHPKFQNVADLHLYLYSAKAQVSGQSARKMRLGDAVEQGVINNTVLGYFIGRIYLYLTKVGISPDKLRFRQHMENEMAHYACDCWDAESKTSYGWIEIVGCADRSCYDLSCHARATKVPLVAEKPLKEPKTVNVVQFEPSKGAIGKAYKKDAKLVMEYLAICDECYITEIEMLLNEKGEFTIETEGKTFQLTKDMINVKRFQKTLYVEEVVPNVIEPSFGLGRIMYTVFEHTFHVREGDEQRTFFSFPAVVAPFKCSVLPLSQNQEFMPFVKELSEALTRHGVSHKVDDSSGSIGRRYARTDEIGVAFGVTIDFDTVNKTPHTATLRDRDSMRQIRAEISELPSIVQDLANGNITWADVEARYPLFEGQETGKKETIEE
The experiment in a line: ELISA: plate coated with His-GRS or BSA, Fc-fused cadherin added, detected with anti-human IgG1 Fc-HRP; axis OD 490nm. How it is done:
(A) A panel of Fc-fused soluble cadherin family proteins was bound to His-tagged GRS or to BSA-coated plates, and complexes were detected with the IgG1 Fc-HRP (Thermo) reagent. (B) To confirm the binding between cadherins and GRS, Fc-CDH2, 6 and 18 were incubated with His-GRS. Fc-CDHs were precipitated with protein A/G agarose and co-precipitated GRS was determined by immunoblotting. (C) To calculate the equilibrium dissociation constant (IQ), immobilized Fc-fused (to gold chips) cadherins were incubated with GRS (31.25 nM˜1 uM). Binding of GRS to CDH6 was determined by surface plasmon resonance and expressed as resonance units (RU). (D) To confirm the binding between CDH6 and GRS domain peptides, Fc-CDH6 was incubated with different domains (F1, 2, 3 and 4) of GRS that were expressed as the GST fusion proteins. GST-GRS proteins were precipitated with GSH-sepharose beads and co-precipitated CDH6 was determined by immunoblotting. (E) Five difference cancers cells were determined for the expression of CDH6 by immunoblotting. (F) HCT116 cells were transfected with non-specific siRNA controls (si-con) or two differently designed siRNAs targeting CDH6 (#1 and #2), treated with biotinylated GRS (15 nM), and the binding of GRS was analyzed by immunoblotting. (G) HCT116 cells were transfected with si-con and si-CDH6 as described above, and cell binding of GRS was measured by FACS analysis. (H) HCT116 cells were incubated with His-GRS (150 nM). To neutralize the effects of GRS, Fc-fused CDH6 (300 nM) was added and the cell viability was determined by the MTT assay. Error bars represent standard deviation. (I) The binding between CDH6 and GRS domain peptides was again confirmed by ELISA assay.
To identifying the receptor of GRS, a Maxisorp plate (Nunc, Rochester, N.Y.) was used for an ELISA detection. The plate were coated with purified his-tagged GRS (1 ug/ml) or BSA (1 ug/ml) in phosphate buffer saline and then blocked (PBS, 4% non-fat milk). Fc-fusion cadherin family proteins (1 ug/ml) were added to the plate and after washing with PBST (0.05% Tween20), the plates were incubated with anti-human IgG1 Fc-HRP (Thermo, Waltham, Mass.). […]
A general note: An ELISA detects its analyte on a solid surface through an enzyme-linked reagent.

The target in test [4] is T1, His-tagged recombinant human …. Kind of test: SPR (ProteOn XPR36), Fc-cadherin amine-coupled to GLC chip, GRS as analyte, Langmuir 1:1 model. How it is done:
Binding of GRS to CDH6 was determined by surface plasmon resonance and expressed as resonance units (RU). (D) To confirm the binding between CDH6 and GRS domain peptides, Fc-CDH6 was incubated with different domains (F1, 2, 3 and 4) of GRS that were expressed as the GST fusion proteins. GST-GRS proteins were precipitated with GSH-sepharose beads and co-precipitated CDH6 was determined by immunoblotting. (E) Five difference cancers cells were determined for the expression of CDH6 by immunoblotting. (F) HCT116 cells were transfected with non-specific siRNA controls (si-con) or two differently designed siRNAs targeting CDH6 (#1 and #2), treated with biotinylated GRS (15 nM), and the binding of GRS was analyzed by immunoblotting. (G) HCT116 cells were transfected with si-con and si-CDH6 as described above, and cell binding of GRS was measured by FACS analysis. […] To neutralize the effects of GRS, Fc-fused CDH6 (300 nM) was added and the cell viability was determined by the MTT assay. […]
Binding of GRS to the cadherin-Fc fusion proteins was determined by the SPR technique using a ProteOn XPR36 Protein Interaction Array System (BioRad). […] The binding was determined by the change in resonance units (RU), where one resonance unit is defined as 1 pg/mm². The Sensogram was processed by subtracting the binding response recorded from the control surface. […]

A word on the Kd: it is the concentration at which binding is half-saturated. The molecule “His-tagged recombinant human glycyl-tRNA synthetase (GRS), 685 amino acids (from UniProt P41250 55-739) (enzyme)” showed a Kd in test [1] of 1.25 nM.

B1: GST-fused GRS fragment F4 (C-terminal anticodon-binding domain, 175 amino acids) (other, not shown: a dimerising Fc or GST; small tags and cut ends)
chain: LYVEEVVPNVIEPSFGLGRIMYTVFEHTFHVREGDEQRTFFSFPAVVAPFKCSVLPLSQNQEFMPFVKELSEALTRHGVSHKVDDSSGSIGRRYARTDEIGVAFGVTIDFDTVNKTPHTATLRDRDSMRQIRAEISELPSIVQDLANGNITWADVEARYPLFEGQETGKKETIEE
notes: also called ABD; GST-GRS F4
Turning to B1, in test [2], the binding result is given as “binds”.

B2: Fc-fused soluble cadherin-2 (extracellular domain of CDH2 fused to the Fc fragment of human IgG1) (Fc fusion, UniProt P19022 160-724, looked up)
chain: DWVIPPINLPENSRGPFPQELVRIRSDRDKNLSLRYSVTGPGADQPPTGIFIINPISGQLSVTKPLDREQIARFHLRAHAVDINGNQVENPIDIVINVIDMNDNRPEFLHQVWNGTVPEGSKPGTYVMTVTAIDADDPNALNGMLRYRIVSQAPSTPSPNMFTINNETGDIITVAAGLDREKVQQYTLIIQATDMEGNPTYGLSNTATAVITVTDVNDNPPEFTAMTFYGEVPENRVDIIVANLTVTDKDQPHTPAWNAVYRISGGDPTGRFAIQTDPNSNDGLVTVVKPIDFETNRMFVLTVAAENQVPLAKGIQHPPQSTATVSVTVIDVNENPYFAPNPKIIRQEEGLHAGTMLTTFTAQDPDRYMQQNIRYTKLSDPANWLKIDPVNGQITTIAVLDRESPNVKNNIYNATFLASDNGIPPMSGTGTLQIYLLDINDNAPQVLPQEAETCETPDPNSINITALDYDIDPNAGPFAFDLPLSPVTIKRNWTITRLNGDFAQLNLKIKFLEAGIYEVPIIITDSGNPPKSNISILRVKVCQCDSNGDCTDVDRIVGAGLGTGA
notes: extracellular domain; also called Fc-CDH2; not shown: Fc fragment of human IgG1
B2: in test [3], the binding result is given as “no binding (tested: 1 ug/ml (single concentration))”. With B3, the dissociation constant Kd in test [4] came to 3.4 nM.
